The source of these data is patent publication US20230183322A1 (PEKING UNIVERSITY, published 2023).

Substitutions are numbered along the chain they refer to.

B1: ABU-341 (antibody, V domains shown)
VH: QVQLQESGPGLVKPSQTLSLTCTVSAGSISSDTYYWSWIRQPAGKGLEWIGRIYTTGSTIYNPSLNSRVLISADTSNNQFSLKLTSVTASDTAVYYCAAHYYSRTDAFHIWGQGTMVTVSS
VL: DIQMTQSPSSLSASVGDRVTITCRASQSIAKFLNWYQKKPGKAPNLLISTASSFQSGVPSRFSGSGSGTDYTLTISGLQPEDFATYYCQQSYSSPYTFGQGTNLEIK
B2: ABU-340 (antibody, V domains shown)
VH: EVQLVESGGGLVQPGGSLRLSCAASGFTVSSNYMNWVRQAPGKGLEWVSVIYSGGSTYYADSVKGRFTLSRDNSKNTLYLQMNSLRAEDTAVYYCARGQYDILTGYQYGAFDIWGQGTMVTVSS
VL: QSALTQPASVSGSPGQSITISCTGTSSDVGTYNLVSWYQQHPGKAPKLMIYEVSKRPSGVSNRFSGSKSGNTASLTISGLQAEDEADYYCCTYAGSSTWVFGGGTKLTVL
B3: ABU-382 (antibody, V domains shown)
VH: EVQLVESGGGLIQPGGSLRLSCAASGITVSSNYMSWVRQAPGKGLEWVSVIYSGGSTFYSDSVKGRFTISRDNSKNTLYLQMNSLRAEDTAVYYCARERGGRFDYWGQGTLVTVSS
VL: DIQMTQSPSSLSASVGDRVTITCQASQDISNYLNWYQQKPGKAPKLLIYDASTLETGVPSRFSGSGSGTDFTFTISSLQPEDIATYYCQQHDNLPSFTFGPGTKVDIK
B4: ABU-354 (antibody, V domains shown)
VH: EVQLVESGGGLIQPGGSLRLSCAASGLIVSSNYMSWVRQAPGKGLEWVSVLYAGGSTDYAGSVKGRFTISRDNSKNTLYLQMNSLRAEDTAVYYCARDAAVYGIDVWGQGTTVTVSS
VL: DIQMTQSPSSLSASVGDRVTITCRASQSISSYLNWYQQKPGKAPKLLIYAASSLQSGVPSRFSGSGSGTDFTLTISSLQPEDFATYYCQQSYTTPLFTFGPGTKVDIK
B5: ABU-349 (antibody, V domains shown)
VH: EVQLVESGGGLIQPGGSLRLSCAASGFTVSRNYMSWVRQAPGKGLEWVSLIYSGGSTFYADSVKGRFTISRDNSKNTLYLQMNTLRSEDTAVYYCARDLVVYGMDVWGQGTTVTVSS
VL: DIQLTQSPSFLSASVGDRVTITCRASQGISSYLAWYQQKPGKAPKLLIYAASTLQVGVPSRFSGSGSGTEFTLTISSLQPEDFATYFCQQLNSYPFTFGPGTKVDIK
B6: ABU-351 (antibody, V domains shown)
VH: B5 VH with I12V, L50V, S56T, F58H, D72H, T84S, S87A
VL: B5 VL with V56S, R61S, F87Y, F96L, P100G, D105E
B7: ABU-352 (antibody, V domains shown)
VH: B5 VH with F27L, R31S, S35T, L50V, D72H, T84S, S87A, L99A, V100M, V101S
VL: DIQMTQSPSSLSASVGDRVTITCRASQSISNFLNWYQQKPGKAPKLLIYAASSLQSGVPSRFSGSGSGTGFTLTISSLQPEDFATYYCQQSYSTPPDTFGQGTRLEIK
B8: ABU-357 (antibody, V domains shown)
VH: B5 VH with I12V, F27V, R31S, L50V, F58N, T84S, S87A, V101S
VL: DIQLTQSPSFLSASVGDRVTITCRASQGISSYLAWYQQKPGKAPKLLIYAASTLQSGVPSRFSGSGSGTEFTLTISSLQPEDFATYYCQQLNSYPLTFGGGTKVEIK
B9: ABU-296 (antibody, V domains shown)
VH: EVQLLESGGGVVQPGGSLRLSCAASGFTFTTYAMNWVRQAPGRGLEWVSAISDSGGSAYYADSVKGRFTISRDNSKNTLYLQMNSLRAEDTAVYYCAKTRGRGLYDYVWGSKDYWGQGTLVTVSS
VL: not shown
B10: ABU-297 (antibody, V domains shown)
VH: B9 VH with T28A, S54G
VL: not shown

The first experiment addresses S protein of the novel coronavirus SARS-CoV-2 (SARS-CoV-2, UniProt P0DTC2 14-1273). Nature of the experiment: cell-based or functional assay.
As for B1, the “IC50 for neutralizing SARS-CoV-2 pseudovirus (Huh-7 cells, luciferase)” value (“IC50” below) is less than 0.1 µg/mL.
Take B2: the “IC50” value was less than 0.5 µg/mL.
Take B3: the “IC50” value is less than 0.1 µg/mL.
The same measure, in the same setting: next, B4: less than 0.1 µg/mL; B5: less than 0.1 µg/mL; B6: less than 0.1 µg/mL.
As for B7, the “IC50” value was less than 0.1 µg/mL.
On the same count and under the same terms, the result for B8 reads less than 1 µg/mL.
The same measure, in the same setting: the result for B9 reads less than 0.1 µg/mL; that for B10, less than 0.1 µg/mL.

The target in another experiment is biotin-labeled SARS-COV-2 RBD domain (SARS-CoV-2, UniProt P0DTC2 319-541). Nature of the experiment: SPR, Biacore T200, biotin-RBD on SA chip, antibody as analyte.
For the molecule B1, the equilibrium dissociation constant (Kd) – broadly, a measure of binding affinity in units of concentration – was less than 10 nM.
For B2, the Kd is less than 10 nM.
Still for that read-out and setting: the result for B3 reads less than 10 nM; that for B4, less than 1 nM.
The same measure, in the same setting: next, B5: less than 1 nM; B6: less than 10 nM; B7: less than 10 nM.
On the same count and under the same terms, the result for B8 reads less than 10 nM; that for B9, less than 1 nM; that for B10, less than 1 nM.
